In assay [1] the target is T1, human sodium-dependent phosphate transporter 2B (NaPi2b) (human, UniProt O95436 1-690).
T1 construct: UniProt ID is given as 095436 [sic]; also called hNaPi2b; Hu NaPi2b
T1 sequence: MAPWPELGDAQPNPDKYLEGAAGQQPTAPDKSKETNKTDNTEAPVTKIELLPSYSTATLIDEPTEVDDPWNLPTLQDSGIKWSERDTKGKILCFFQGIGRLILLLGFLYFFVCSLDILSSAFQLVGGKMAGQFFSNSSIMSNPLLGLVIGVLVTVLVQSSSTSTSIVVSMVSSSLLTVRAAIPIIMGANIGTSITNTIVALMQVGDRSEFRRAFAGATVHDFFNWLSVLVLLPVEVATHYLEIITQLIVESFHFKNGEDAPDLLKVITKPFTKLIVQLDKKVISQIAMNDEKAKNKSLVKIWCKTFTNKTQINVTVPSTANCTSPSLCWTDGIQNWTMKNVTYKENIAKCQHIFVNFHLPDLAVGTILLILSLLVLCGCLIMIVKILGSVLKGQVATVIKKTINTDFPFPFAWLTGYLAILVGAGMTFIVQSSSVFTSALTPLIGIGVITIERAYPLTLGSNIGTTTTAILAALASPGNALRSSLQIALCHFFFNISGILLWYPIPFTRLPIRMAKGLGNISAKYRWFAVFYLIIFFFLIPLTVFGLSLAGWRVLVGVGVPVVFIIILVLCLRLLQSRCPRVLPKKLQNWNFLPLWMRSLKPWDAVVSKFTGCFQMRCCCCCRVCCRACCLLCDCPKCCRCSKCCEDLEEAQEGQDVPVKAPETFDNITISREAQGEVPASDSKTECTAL
The assay is described as follows: flow cytometry, HCC-78 cells (endogenous NaPi2b); apparent Kd. The procedure:
(§1) Briefly, HEK293-6e cells were transfected for ˜24 hours to transiently express human NaPi2b, cynomolgus or mouse NaPi2b, at 1 μg of DNA per 1 million cells. Following transfection, 50,000 cells per well were seeded in V-bottom 96-well plates and incubated with 200 nM of primary antibody for 18-24 hours at 4° C. to prevent internalization. Post-incubation, cells were washed and stained with anti-Human IgG Fc AF647 conjugate (Jackson Immuno Research Labs, West Grove, PA, Cat. No. 109-605-098, Lot. No. 124868) at 4° C. for 1 hour. Following staining and washing, fluorescence was detected by flow cytometry on BD LSRFortessa™ Cell Analyzer (BD Biosciences, Franklin Lake, NJ) with 10,000 minimum events collected per well. The AF647/APC-A GeoMean (fluorescence signal geometric mean, proportional to anti-Human AF647 binding) was calculated for the live singlet cell population for each primary antibody using FlowJo™ v8 software (BD Biosciences, Franklin Lake, NJ). The Bmax and Kd of each primary antibody were calculated using GraphPad Prism Version 9 (GraphPad Software, San Diego, CA)
(§2) The ability of ADCs to bind to cells expressing NaPi2b was assessed. […] Binding to endogenous high NaPi2b-expressing cell lines IGROV-1 and HCC-78 was assessed by flow cytometry according to methods described in Example 5.

Assay [2] addresses T1, human sodium-dependent phosphate …. The experiment in a line: flow cytometry, IGROV-1 cells (endogenous NaPi2b), 24 h at 4 °C; apparent Kd. The method, boiled down:
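IGROV-1 cells were incubated with test antibody for 24 hours at 4° C to prevent internalization, then stained with anti-human IgG Fc AF647 for 30 min at 4° C. AF647 geometric mean fluorescence of live cells was measured by flow cytometry and plotted per antibody.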
For orientation: Flow cytometry measures light scatter and fluorescence of single cells or particles in a stream.

For assay [3] the target is unchanged. The experiment in a line: flow cytometry on TOV-21G cells (endogenous NaPi2b), 24 h at 4 C, anti-human IgG Fc AF647 detection. The method, then: Briefly, cells were seeded at 50,000 cells/well in conical-bottom 96-well plates and treated with test antibody for 24 hours at 4° C. to prevent internalization. […] Following incubation, cells were washed and stained with anti-Human IgG Fc AF647 conjugate (Jackson Immuno Research Labs, West Grove, PA; Cat. No. 109-605-098) at 4° C. for 30 min. Following incubation and washing, fluorescence was detected by flow cytometry on a BD LSRFortessa™ Cell Analyzer (BD Biosciences, Franklin Lake, NJ) with 1,000 minimum events collected per well. The AF647/APC-A GeoMean (fluorescence signal geometric mean, proportional to anti-Human AF647 binding) was calculated for the live cell population using FlowJo™ Version 10.8.1 (BD Biosciences, Franklin Lake, NJ) and plotted for each test antibody using GraphPad Prism Version 9 (GraphPad Software, San Diego, CA).
The ability of the humanized antibody variants v38591 and v29456 to bind to NaPi2b expressed on cells was assessed on endogenous NaPi2b-expressing tumor cell lines IGROV-1 (ovarian adenocarcinoma) and TOV-21G (ovarian carcinoma) by flow cytometry.
Cellular binding was performed according to methods described in Example 13.

Assay [4] concerns the target T2, mouse NaPi2b (mouse, UniProt Q9DBP0 1-697).
T2 construct: Transiently expressed on HEK293-6e cells; also called Ms NaPi2b
T2 sequence: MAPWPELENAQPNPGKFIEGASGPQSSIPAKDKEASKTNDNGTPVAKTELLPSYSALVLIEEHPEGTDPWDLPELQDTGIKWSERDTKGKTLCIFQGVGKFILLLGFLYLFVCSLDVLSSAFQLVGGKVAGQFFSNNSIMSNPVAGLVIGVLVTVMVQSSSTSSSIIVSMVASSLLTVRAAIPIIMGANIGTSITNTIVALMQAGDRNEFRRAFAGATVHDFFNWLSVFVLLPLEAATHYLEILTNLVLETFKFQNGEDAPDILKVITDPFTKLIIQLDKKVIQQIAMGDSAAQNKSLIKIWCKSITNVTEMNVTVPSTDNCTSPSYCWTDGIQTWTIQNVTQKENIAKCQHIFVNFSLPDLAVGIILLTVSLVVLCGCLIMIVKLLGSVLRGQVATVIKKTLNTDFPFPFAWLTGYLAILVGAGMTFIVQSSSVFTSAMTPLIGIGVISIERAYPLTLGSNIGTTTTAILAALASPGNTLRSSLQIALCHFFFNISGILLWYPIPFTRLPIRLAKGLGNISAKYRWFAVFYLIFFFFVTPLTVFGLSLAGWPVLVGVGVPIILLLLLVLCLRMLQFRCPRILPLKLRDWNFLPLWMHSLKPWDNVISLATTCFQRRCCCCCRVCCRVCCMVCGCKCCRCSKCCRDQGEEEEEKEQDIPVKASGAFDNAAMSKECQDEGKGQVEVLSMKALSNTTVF
The assay is described as follows: flow cytometry, HEK293-6e cells transfected with mouse NaPi2b; apparent Kd. The procedure:
The binding cross-reactivity of humanized antibody variant v29456 to human, cynomolgus and mouse NaPi2b was assessed by flow cytometry using HEK293-6e transfected cells.
as §1

The target of assay [5] is T1, human sodium-dependent phosphate …. The assay is described as follows: flow cytometry, HCC-78 cells (endogenous NaPi2b). The method, then:
as §1, §2

B1: v29456 humanized anti-NaPi2b antibody (H1L2) (antibody, human IgG1, kappa)
heavy: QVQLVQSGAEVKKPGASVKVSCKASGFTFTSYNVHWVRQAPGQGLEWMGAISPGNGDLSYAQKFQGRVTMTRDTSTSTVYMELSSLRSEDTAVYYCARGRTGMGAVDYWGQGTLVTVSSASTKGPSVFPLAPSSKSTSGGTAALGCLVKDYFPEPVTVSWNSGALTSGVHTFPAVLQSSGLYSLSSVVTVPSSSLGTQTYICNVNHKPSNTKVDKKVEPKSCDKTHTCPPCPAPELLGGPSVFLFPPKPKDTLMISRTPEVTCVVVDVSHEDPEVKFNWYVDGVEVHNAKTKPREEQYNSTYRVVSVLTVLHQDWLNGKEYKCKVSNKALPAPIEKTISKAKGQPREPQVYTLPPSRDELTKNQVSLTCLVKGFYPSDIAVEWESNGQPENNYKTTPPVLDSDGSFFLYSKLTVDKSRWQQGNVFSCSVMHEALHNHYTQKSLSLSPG
light: DVQMTQSPSSLSASVGDRVTITCRASQDVYSYLNWYQQKPGKAVKLLIYYTSRLQSGVPSRFSGSGSGTDYTLTISSLQPEDFATYYCQQYNIFPWTFGQGTKLEIKRTVAAPSVFIFPPSDEQLKSGTASVVCLLNNFYPREAKVQWKVDNALQSGNSQESVTEQDSKDSTYSLSSTLTLSKADYEKHKVYACEVTHQGLSSPVTKSFNRGEC
B1: the figures for the Kd in assay [1], in assay [2] and in assay [4] were 2.27 nM, 1.1 nM and 10.6 nM, respectively. Moreover, the 50% effective concentration (EC50 (read off the curve)) – broadly, the concentration that produces a half-maximal response – in assay [3] was roughly 0.7 nM. The molecule also displayed a Bmax in assay [5] of 21800.
